# Data published in patent publication US20050187175A1 (published 2005).
# B1: CPG15-2 (other)
# chain: SEGPNRCDTIYQGFAECLIRLGDGMGRGGELQTVCRSWNDFHACASRVLSGCPEEAAAVWESLQQEARRAPHPDNLHILCGAPVSVRERIAGPETNQETLRATA
# notes: also called mouse CPG15-2
# Target: the molecule itself
# Test: non-reducing SDS-PAGE of whole cell extracts of transfected HEK293T cells
protein,measurement,value
B1,binding result,binds
